# Results as given in the DeepSol protein solubility set.
# Assay: soluble on expression in E. coli; label from the status in PepcDB or PDB records
row,Sequence,soluble on expression in E. coli
1,MGSDKIHHHHHHMKKYVIVTGGVLSGIGKGIFSASLARLMKEHGVDVNVLKIDPYLNVDAGTMNPNQHGEVFVTEDGYEADLDLGHYERFLGRDMTRQNNMTAGQVYLRVIEKERQGKYLGNTVQIVPHLTEEIKDRIRALEAELLVVEIGGTVGDIEGEVFLEAVRELQMEEGKENFLFAHVTYVPYLRTTNEFKTKPTQQSVQLLRRIGITPDMVIVRSEFPLDVPSMNKVALFSGVPRDFVINLPDTKNVYEVPEILRDMGLHEKIASKLNVELKKSTFNWSYPKAFKPYRIALVGKYLGTDDAYKSIIESVFLTGIEKPTVVDSQMLEDMNDEEVKKVLDEYDALIIPGGFGRRGVEGKIKAIKYARENKKPILGICLGMQLMVIEFARNVFGYKEANSTEFDPNTPYPVVDLMEEQKRILKLGGTMRLGAQKVKIFPKTKLYEVYGGVEEVYERHRHRYEANEEAFPELFKKPGEEGYKLVVSAKSDFIEAVELEDHPFFVGVQFHPEYKSKVGAPHPIFVYLRKVLEGSQ,not soluble
2,MGGTSYLIVGNEGNILIDCPALDQTNLNFLRSHGGVRWLFLTHRGAIGRTAEIQQNYGCDILIQEQEAYLLPGLTVTTFTQEFAVTPTAKAIWTPGHSPGSSCLYYNHQGGVLFSGRHLLPNQKGEPVPLRTAKTFHWPRQIKSLQTILETLTPETLQYICPGANTGFLRGKRSIDTAYQRLASLDLKALLQTQPLEHHHHHH,not soluble
3,MSLTISTQCSKCEKIYDDNKRKICSGKCGHSICESCFDRKSSDICSICNQIDSFGVKCINRSAMEMVEMKKNAFSFSDIWIFKFDPKEHFNGPCSKCNDYSTMLRVCTNSAVQAGLLVKTGENSFDLTPHTTDELLETIILRIKSIGICADCVINNGLKEDVVMMKNIKRLYDIAKALNYLSMFSFSMKQIEREIEEFKNKKNQLRFYNMYYHFVKETYPEIMKWLKNDLVRISAPPCWQVLLKIVSIMTQAAQSLFLKSAERELQISKEKLRDSKGNSEWQKTVDKLENFRDFLEINHVDAEIQPIDMWNFFVLCTTEELDKVTAIINRNLKIQGKSSRETLKEVYYLTRDVRKTLPFQIPERFAGFIDRFIRVLVGENLDEEQALEIQSTT,not soluble
4,RPRGPRAVFILPVTAQGEAVLIRQFRYPLRATITEIVAGGVEKGEDLGAAAARELLEEVGGAASEWVPLPGFYPQPSISGVVFYPLLALGVTLGAAQLEDTETIERVVLPLAEVYRMLEAGEIQDGPSSLTLWQARGELTRRGLL,soluble
5,KKAQLIVAGIGPGSPEDITPAVIQAVKNSDVVIGYKYYFQFIEPYLEPGTECIDTGMKREKARAEQAFELAEQGKTVCVISSGDAGIYGMAPLVYEMKRERGSRVEIEVLPGIS,not soluble
6,SVNAATVDLRIMETTDLHSNMMDFDYYKDAATEKFGLVRTASLIEQARAEVKNSVLVDNGDVIQGSPLGDYMAAKGLKEGDVHPVYKAMNTLNYAVGNLGNHEFNYGLDFLHKALAGAKFPYVNANIIDAKTGKPMFTPYLIQDTRVVDSDGQIHTLRIGYIGFVPPQIMTWDKANLNGKVTVNDITETARKYIPEMRAKGADVVVVVAHSGLSADPYQAMAENSVYYLSQVPGVDAIMFGHAHAVFPGKDFANIKGADIAKGTLNGVPAVMPGMWGDHLGVVDLVLNNDSGKWQVTQSKAEARPIYDAVAKKSLAAEDGKLVSVLKADHDATREFVSK,soluble
7,SQSPNPNNPAEYCSTIPPLQQAQASGALSSPPPTVMVPVGV,soluble
8,MSLKISAIELYEYDLTYSHGTYVMSKGRSAKQQPSNLVRVITDSGIEGWGEAATLSGNYLPVFAGSTRAALRELAPLLIGQDPRGSTHLQRLMSSLLMGQANAKNAFDVACWDIFGKSVDLPISALIGGVLSTELPIFEAVPLSSTEESLDYIGKRSAQGIMRYQIKIGDDPVKDAARARAIVKAFPDIFFFVDANAGYTLLEAQIAMRALDDTNLYVEQPCRDIADCAMLRKISGLPIVLDEAVLTHADLYRAKYEVSAAAVNIKLGRLGGITPAVAMRNAAQDLGMHFCIEDVWGGDVTAAAVSHVAASAFPENLMHTSFFNDWTNEHVAGYQPRSRNGRGAAPTGPGLGITVDRSLLGAPVASFSEGHHHHHH,soluble
9,AERLPDFLAKIQPSEIFPGADRYGKPEGKPMVARVYKGDEQLGLVYITTDAVNTRGYSSKPIDTLMVLANDGTIAGAKLVDHHEPIMLIGIPHLPAPGRAIRSNWLPAYIKPNFTLTNRLRLKGLPTVPQPSKATGAGVP,not soluble
10,MAHKQSTNNETSNGSTTEIIDETDARAQLESGRTTPTLLLRLEHPRNERRVAFHAGIIDNEHLNRKKSKCCCIYKKPLAFGESSSEDDEDCEHCFGHPEKRQRNAKHNHNHGDKPCTEASHPEGPSTSTQAAHISQPPAEPVESKTDPKPPTPGVDFEQTGSSMGHHHHHHSH,soluble
11,MAHHHHHHMAGSIRYFIDPRGALSPCAPAESSTPRAGGTKVPRTAEAKSSPNSPPELSSAVPLDGLCRAYEAADGRSGSAFLQVYSVGAHGLLSPEAKAVITGCTMAALRSRLSHLLGLLPHERLNGADSALGMSAVAVLNRYCRATAALPPPSPSAMQPRCGTDTDGGGMRGRGWVVTWALELVLCVAASRIVAGPPLATACPPLCVSDCGDVIMASLHFGLGVRLQRDAVAHHDERTIASSTPLTSAAERCPRYAALSVQLTECTPASSHPLDVRCAVDVTRVIYVNHIRSAQAHAEDGTDAFQRLARCEGGVSDPLSVATARDAWAEALQSYQASAIASQGGVLFVLTHDLSVQSGPAALLPLTVREERSRSHAAEMSHDVAFPPALRDHVLASVRVRSAPVYFNHILLCQAWSSDDVVAEAHARHWAEKLANDGALAPARVAVEWRASLLVSRAKGGAAVTSDAGGSQTLAPTPLQWVLYTARRQLVVAVANRSQVVLTGRRRGLDRTAAEATTKAAQFSPSALRALAEQCVKALPVARGLLGWHCPWPVPSCLQNTDTCTAIPSAAAVEEVLWTLRMLGKLRWRAAQLYEAAGDSAEQHRQLRALRADVQRWSSRRRARTLAADGTTLACEATAWTPTVEDVVCHVDDGDWGALTKELSSMLPPA,not soluble
12,MRNIAEAYFQNMVETATPLEQIILLYDKAIECLERAIEIYDQVNELEKRKEFVENIDRVYDIISALKSFLDHEKGKEIAKNLDTIYTIILNTLVKVDKTKEELQKILEILKDLREAWEEVKKKVHHHHHH,soluble
13,MGSDKIHHHHHHMFLTKVSLLDHPESLPGYLSSLAIVEYLHEQPLEFRAPITVITGENGVGKSTLVEALAVGMRLNPSGGSRHANFGREGDIVSSLHQSLKLVRRENPRDAFFFRGETMYNVASYYEELMGEKNMHDLHKMSHGESVFAVIDRRFNNQGFFVLDEPEAGLSMLRQLELLGKLGNLARGGAQIIMATHSPILLAIPGAEILEITSSGVAKVNFEDAEAVRAAREFVADPRGTAAFLTAEEDHQ,not soluble
14,MSLNLVSEQLLAANGLNHQDLFAILGQLAERRLDYGDLYFQSSYHESWVLEDRIIKDGSYNIDQGVGVRAISGEKTGFAYADQISLLALEQSAQAARTIVRENGEGKVKTLAAVAHQPLYTTLDPLQSMSREEKLDILRRVDKAAREADKRVQEVNASLTGVYELILVAATDGTLAADVRPLVRLSVSVQVEEDGKRERGASGGGGRFGYEYFLADLDGEVRADAWAKEAVRMALVNLSAVAAPAGTLPVVLGAGWPGVLLHEAVGHGLEGDFNRRGTSVFSGQIGEQVASALCTVVDDGTMMNRRGSVAIDDEGTPGQYNVLIENGVLKGYMQDKLNARLMGAAPTGNGRRESYAHLPMPRMTNTYMLAGQSTPQEIIESVEYGIYAPNFGGGQVDITSGKFVFSTSEAYLIENGKVTTPVKGATLIGSGIETMQQISMVGNDLKLDNGVGVCGKEGQSLPVGVGQPTLKVDNLTVGGTA,not soluble
15,GMTTPPARTAKQRIQDTLNRLELDVDAWVSTAGADGGAPYLVPLSYLWDGETFLVATPAASPTGRNLSETGRVRLGIGPTRDLVLVEGTALPLEPAGLPDGVGDTFAEKTGFDPRRLTTSYLYFRISPRRVQAWREANELSGRELMRDGEWLVTD,soluble
16,MGHHHHHHSHMVGLDIDSRLIHSARQNIRHYLSEELRLPPQTLEGDPGAEGEEGTTTVRKRSCFPASLTASRGPIAAPQVPLDGADTSVFPNNVVFVTGNYVLDRDDLVEAQTPEYDVVLCLSLTKWVHLNWGDEGLKRMFRRIYRHLRPGGILVLEPQPWSSYGKRKTLTETIYKNYYRIQLKPEQFSSYLTSPDVGFSSYELVATPHNTSKGFQRPVYLFHKARSPSH,not soluble
17,IEPEFIGNENYKNLIVSWGTTYYPIKDALEELNLKDTAFIHFSQIYPISESGEKYLKKAEKVVNIELNYTGQLGRLLKREFGIEMNDSILKYDGRVFSVEELSEKIKKVLRG,not soluble
18,MSEQLVTPENVTTKDGKINLLDLNRQQMREFFKDLGEKPFRADQVMKWMYHYCDNFDEMTDINKVLRGKLKEVAEIRAPEVVEEQRSSDGTIKWAIAVGDQRVETVYIPEDDRATLCVSSQVGCALECKFCSTAQQGFNRNLRVSEIIGQVWRAAKIVGAAKVTGQRPITNVVMMGMGEPLLNLNNVVPAMEIMLDDFGFGLSKRRVTLSTSGVVPALDKLGDMIDVALAISLHAPNDEIRDEIVPINKKYNIETFLAAVRRYLEKSNANQGRVTIEYVMLDHVNDGTEHAHQLAELLKDTPCKINLIPWNPFPGAPYGRSSNSRIDRFSKVLMSYGFTTIVRKTRGDDIDAACGQLAGDVIDRTKRTLRKRMQGEAIDIKAV,not soluble
19,MSKSYNQRQRKKLHLAEFQELGFLVNFQFAEGTAIETVDETVDRFINEVIQPNGLAYEGSGYLHWEGLVCLEKIGKCDESHRETVKKWLETNGLQQIEVSELFDIWW,not soluble
20,HITLNYLSKTLGMHQTINVILPEDKSYFDTNENAKPLKTMLLLHGLSSDTSSYMRYTSIERYANTHQLAVVMPNADHSFYSNMAYGHSYYDYILEVYDYVHQILPLSKKREDNFIAGHSMGGYGAIKFALTQSYRFSKAAMLSAPYDVSMIGQYQWYDFTPEAIVGNTQHVAGTSFDPYYLVEQAIDNGQALPQLYITCGTEDELYQGNIDFVNYLDEKGIPYQFKKAPGNHDYAFWDKAIEDVIDRF,not soluble
21,CGPQYRFVWKGGEGGIGDAANALDSGKIIAIKGIGGYHIACLTEDDVVLRLRKLLNRPQQPFAVMVRDLSSAERVAELSNEERAELLSPARPIVVVRKKLPFEAVAPELDTIGIMLPYTPLHHLLFQELKADYLVMTSANLPGEPMYIDESIMEKMELDGFLVHNLEIANRVDDSVVKYVGGRRLLIRRSRGFVPQPIKIDIGFN,not soluble
22,MAGKWNVLSLLAFRPCQPALPHDNHGGGMDAIYLKLDGIEGESRIKGFENQIKLIAYNHNPTKRESGEARGTYIGGLTLTKPVDLATPGLYEHYCNGKTVKEGVLTLCRRDKGAMLPFIIYTLTNVRISRMSNHGDAEGSATETVDLVYSHIRWDIPALASKSKTRRPLHRQALWR,not soluble
23,TMAGRSMQAARCPTDELSLSNCAVVSEKDYQSGQHVIVRTSPNHKYIFTLRTHPSVVPGSVAFSLPQRKWAGLSIGQEIEVALYSFDKAKQCIGTMTIEIDFLQKKNIDSNPYDTDKMAAEFIQQFNNQAFSVGQQLVFSFNDKLFGLLVKDIEAMDPSILKGEPASGKRQKIEVGLVVGNSQVAFEKAENSSLNLIGKAKTKE,soluble
